The target of this assay is 6His-σS (His-tagged RpoS) (E. coli) (UniProt P13445). Description: pull-down.
UniProt P13445, sequence (P13445 whole entry): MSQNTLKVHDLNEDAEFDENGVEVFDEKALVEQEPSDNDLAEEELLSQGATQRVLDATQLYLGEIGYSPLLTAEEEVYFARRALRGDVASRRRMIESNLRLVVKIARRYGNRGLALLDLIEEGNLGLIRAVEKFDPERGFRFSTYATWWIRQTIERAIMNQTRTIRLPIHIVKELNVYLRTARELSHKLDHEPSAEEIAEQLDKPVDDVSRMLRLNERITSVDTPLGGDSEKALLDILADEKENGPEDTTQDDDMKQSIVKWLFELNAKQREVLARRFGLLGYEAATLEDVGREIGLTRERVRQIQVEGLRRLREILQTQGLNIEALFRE

Turning to “RssB bound to Mg2+•beryllofluoride (phosphorylated-like RssB) (from UniProt P0AEV1 1-337) (natural protein)”, the fold increase in pull-down efficiency over RssB without Mg2+•beryllofluoride amounted to 5 fold.

These data come from paper doi:10.1101/2022.12.15.520641.
